Assay results published in patent publication US9927440B2, “Protein engineering” (priority 2009, dated 2018).
Like-named read-outs stand apart in the source and are kept apart here.

How the values were obtained:
[1] = target: T1, Staphylococcal nuclease (SN) (Staphylococcus aureus, UniProt P00644); format: binding; conditions: SN/L36C; 35.3 °C; from single ΔΔGU measurement; read-out: apparent KD (binary complex)
T1 construct: made in house; host or cells: cell-free TnT, E. coli BL21 Star (DE3) extract
Description: (§1) The rate of labeling of internal cysteine residues was measured by reacting 30-50 μL of ˜0.1 μM protein sample (i.e., ˜3-5 picomoles of protein) with excess IAM-biotin (1 mM unless otherwise stated) at constant temperature (25 mM MOPS, 100 mM KCl and pH 7.6). 5 μL aliquots were removed at fixed time intervals and quenched by addition of 2 μL 2M β-mercaptoethanol (Sigma; M6250). Following addition of 5 μL LDS-buffer (Invitrogen; NP0007) and heating for 2 min at 85° C., (un)labeled protein species were resolved by SDS-PAGE (Novex 4-12% Bis-Tris Gels; Invitrogen; NP0321). […] For the experiment shown in FIG. 8A, ecRBP variant L62C was modified with 1 mM IAM-biotin at 47.1° C., pH 7.6. […] Streptavidin was used to alter the electrophoretic mobility of the labeled protein (Streptavidin bands indicated by a, b, and c). […] Error bars represent the estimated uncertainty of the integrated band intensities (˜2%). For the experiment shown in FIG. 8B, SN variant L36C was labeled with IAM-biotin at 35.3° C., pH 7.6. […] At 29.3° C., 26.3° C. and 23.3° C., kint and klabel were manipulated by increasing the concentration of IAM-biotin from 1 mM to 3.16 mM.
(§2) The modulation of protein stability by binding of metals, ligands, activators, inhibitors, substrates, nucleic acid or other proteins can be used to measure binding affinities within a GUWO. For a protein with a single binding site, the free energy of ligand binding was described by
(§3) [formula] where P was the binding polynomial, [L] the total ligand concentration, and KD the apparent dissociation constant of the ligand. For proteins with multiple ligand-binding sites, P was expanded as described in Equations 21-36 below.
(§4) By thermodynamic linkage, any change in ΔGU caused predominantly by ligand binding (Scheme 1) is ΔGbind=ΔΔ^LGU=Δ^LGU−Δ^apoGU [20] where Δ^LGU and Δ^apoGU were the stability of the protein in the presence of absence of ligand respectively. Equation 20 was used to obtain apparent KD values from either the ligand dependence of ΔΔGU (by curve fitting), or from a single measurement of ΔΔGU.

[2] = target: T2, Staphylococcal nuclease (SN) (Staphylococcus aureus, UniProt P00644, L118C/Q162N); format: binding; conditions: 1 mM Ca2+; 35.3 °C
T2 construct: made in house; host or cells: cell-free TnT, E. coli BL21 Star (DE3) extract
Description: as §1, §2, §3, §4

SN = SN (Staphylococcus aureus, UniProt P00644); conditions: cited from earlier work
[3] = Intrinsic reaction rate of IAM-biotin with unprotected cysteine (GSH), iodide absorbance at 226 nm; format: physicochemical; conditions: pH 7.6; for pseudo-first order rate constant (kint): 80 μM IAM-biotin, 800 μM GSH
Description: FIGS. 10A-C show the determination of kint in model compounds and unfolded SN.
The iodoacetyl moiety of IAM-biotin (EZ-Link™ Iodoacetyl-PEG2-Biotin; Pierce; 21334) reacts primarily with free thiolate to form a stable thioether bond. Because thiolate was the predominant reactive species, the reaction rate was dependent on the pKa of cysteine (˜8.6) relative to solution pH (which was set to 7.6). The kint values reported here were only valid for pH 7.6. kint was determined for an unprotected cysteine by reacting IAM-biotin with L-glutathione (GSH) (Sigma; G4251) and monitoring the absorbance of the liberated iodide ion (ϵ226=12,600M^−1 cm^−1 at 226 nm) as function of time. Second-order rate constants for the reaction of IAM-biotin with GSH were measured under pseudo first-order conditions at 25° C., 35° C., 45° C. and 55° C. (80 μM IAM-biotin, 800 μM GSH, 25 mM MOPS, 100 mM KCl and pH 7.6) and analyzed in terms of the Arrhenius equation (see FIG. 10).

[4] = target: T3, E. coli ribose-binding protein (ecRBP) (Escherichia coli, UniProt P02925, A213C/T28W); assay: biochemical; conditions: for ΔG / ΔΔG / kex: ecRBP.A188C, 54.6 °C; for kex: 1.00E−03 M IAM
T3 construct: made in house; host or cells: cell-free TnT, E. coli BL21 Star (DE3) extract
T3 sequence (P02925 other isoform, or with tags, fused parts or gaps T28W/A213C): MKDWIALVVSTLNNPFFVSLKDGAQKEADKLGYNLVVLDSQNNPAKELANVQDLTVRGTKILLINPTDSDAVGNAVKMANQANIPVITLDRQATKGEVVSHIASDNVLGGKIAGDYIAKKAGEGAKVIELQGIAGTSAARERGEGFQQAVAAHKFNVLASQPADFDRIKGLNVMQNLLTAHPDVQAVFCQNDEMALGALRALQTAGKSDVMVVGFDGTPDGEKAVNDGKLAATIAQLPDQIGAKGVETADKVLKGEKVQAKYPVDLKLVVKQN
Description: as §1, §2, §3, §4

[5] = target: T4, E. coli ribose-binding protein (ecRBP) (Escherichia coli, UniProt P02925, L86C/T28W); assay: biochemical; conditions: for ΔG / ΔΔG / kex: ecRBP.L62C, 48.9 °C; for kex: 1.00E−03 M IAM
T4 construct: made in house; host or cells: cell-free TnT, E. coli BL21 Star (DE3) extract
T4 sequence (P02925 other isoform, or with tags, fused parts or gaps T28W/L86C): as the sequence (P02925 other isoform, or with tags, fused parts or gaps T28W/A213C) above, with L62C, C189A counted along it
Description: as §1, §2, §3, §4

[6] = Quantitative cysteine reactivity (QCR): protein stability, temperature dependence of ΔGU; format: physicochemical; conditions: for ΔHm: Gibbs-Helmholtz fit, ΔCp assigned a priori; for ΔG°U at 25° C.: ecRBP mutants, Gibbs-Helmholtz extrapolation; for apparent Tm below wild-type: versus literature wild-type Tm
Description: as §1
Following staining with GelCode™ Blue Stain reagent (Thermo Scientific; 24592), gel images were digitized and band intensities quantified by densitometry (ImageJ; Rasband (1997-2009), U.S. National Institutes of Health, Bethesda, Md.) and fit to a single exponential to derive klabel. When designing QCR experiments, consideration was given to the degradation of the iodoacetyl moiety of IAM-biotin, which was dependent on time, exposure to light, and temperature. […] At higher temperatures the degradation of IAM-biotin is taken into account, primarily by limiting the labeling reaction to less than ˜90 min.
[formula] applies only if the labeling conditions were fully in the EX2 limit, when kclose>>kint. As labeling reagent concentration increases, kint increases concomitantly and eventually kint will become equal to or greater than kclose. Under these conditions, the observed labeling rate was determined solely by kopen and klabel and was no longer a measure of stability. The reagent concentration and environmental conditions (i.e. pH and temperature) at which EX2 conditions no longer apply varies according to the (un)folding kinetics of the protein. A simple test of reaction mechanism was to change reagent concentration and remeasure the kinetics: EX2 conditions were satisfied if the change in the observed labeling rate was proportional to the change in reagent concentration (see FIG. 9).
The QCR experiment was designed to determine the Gibbs free energy of global protein unfolding by measuring the reactivity of wild-type or mutant cysteines buried in a hydrophobic core. […] These mutant proteins were produced in 200 μL batches by cell-free coupled transcription and translation in E. coli extract. […] This approach uses approximately 0.5 picomoles (˜10 nanograms) of protein per time point and can use a variety of thiol-reactive reagents that alter electrophoretic mobility or were highly fluorescent.
The QCR method exploits the conformational fluctuations of a protein to measure conformational free energy. Cysteines that were protected in the folded ensemble can be modified by thiol-reactive probe only by complete exposure to bulk solvent by transient unfolding reactions, as described by a two-step reaction scheme:
Unfolding free energies (ΔGU) can be determined under EX2 conditions (kclose>>kint) by measuring klabel, the rate constant for labeling a protected cysteine at a specified concentration of thiol probe [P]

[7] = second-order rate constants 25-55 °C

With `[Ca+2]` [Ca^2+] as the molecule, how does the Kd [1] read?
The Kd was 600 ± 200 µM.

What about the “increase in stability (ΔΔGU) of SN/L36C” value [2] of the same molecule?
Its value is 2.5 ± 0.84 kJ/mol.

What about the Kd (SN; Ca2+ and pdTp synergistic, read-out: affinity for SN in the presence of the other ligand) of the same molecule?
The Kd was ~2 µM.

What about the Kd (SN; Serpersu et al. 1986, read-out: affinity for SN, ligand by itself) of the same molecule?
Its Kd is ~500 µM.

Which results are given for `O=C(CI)NCCOCCOCCNC(=O)CCCC[C@@H]1SC[C@@H]2NC(=O)N[C@@H]21` [IAM-biotin, EZ-Link™ Iodoacetyl-PEG2-Biotin]?
pseudo-first order rate constant (kint) ([3]; 25 °C, 25 mM MOPS, 100 mM KCl): 0.00062 s⁻¹; second order rate constant (k=kint/[GSH]) ([3]; 25 °C): 0.78 M⁻¹ s⁻¹; pseudo-first order rate constant (kint) ([3]; 35 °C): 0.00016 s⁻¹; second order rate constant (k=kint/[GSH]) ([3]; 35 °C): 2.0 M⁻¹ s⁻¹; pseudo-first order rate constant (kint) ([3]; 45 °C): 0.0035 s⁻¹; second order rate constant (k=kint/[GSH]) ([3]; 45 °C): 4.4 M⁻¹ s⁻¹; pseudo-first order rate constant (kint) ([3]; 55 °C): 0.0077 s⁻¹; second order rate constant (k=kint/[GSH]) ([3]; 55 °C): 9.6 M⁻¹ s⁻¹; Arrhenius pre-exponential factor (ln A), IAM-biotin + GSH [3, 7]: 27.1±0.5; Arrhenius slope (−Ea/R), IAM-biotin + GSH [3, 7]: −8.2×10^3±0.1×10^3

With `O=C[C@H](O)[C@H](O)[C@H](O)CO` [ribose, reference compound] as the molecule, how does the Kd [4] read?
The Kd was 1.8 ± 0.1 µM.

What about the Kd [5] of the same molecule?
Its Kd is 2.8 ± 0.2 µM.

B1: ecRBP.A188C (protein, UniProt P02925 26-296, looked up, variant A188C)
Ribose import binding protein …: KDTIALVVSTLNNPFFVSLKDGAQKEADKLGYNLVVLDSQNNPAKELANVQDLTVRGTKILLINPTDSDAVGNAVKMANQANIPVITLDRQATKGEVVSHIASDNVLGGKIAGDYIAKKAGEGAKVIELQGIAGTSAARERGEGFQQAVAAHKFNVLASQPADFDRIKGLNVMQNLLTAHPDVQAVFCQNDEMALGALRALQTAGKSDVMVVGFDGTPDGEKAVNDGKLAATIAQLPDQIGAKGVETADKVLKGEKVQAKYPVDLKLVVKQ
Which results are given for B1?
ΔHm [6]: 381 ± 17 kJ/mol; ΔG°U at 25° C. [6]: 17.2 ± 0.42 kJ/mol; apparent Tm below wild-type [6]: ~8 °C; ΔG ([4]; [Ligand] 0 μM): 3.3 kJ/mol; ΔΔG ([4]; [Ligand] 0 μM): 0 kJ/mol; kex ([4]; [Ligand] 0 μM): 0.00217 s⁻¹; ΔG ([4]; [Ligand] 1.5 μM (ribose)): 4.6 kJ/mol; ΔΔG ([4]; [Ligand] 1.5 μM (ribose)): 1.3 kJ/mol; kex ([4]; [Ligand] 1.5 μM (ribose)): 0.00141 s⁻¹; ΔG ([4]; [Ligand] 3 μM (ribose)): 5.86 kJ/mol; ΔΔG ([4]; [Ligand] 3 μM (ribose)): 2.5 kJ/mol; kex ([4]; [Ligand] 3 μM (ribose)): 0.00097 s⁻¹; ΔG ([4]; [Ligand] 6 μM (ribose)): 6.69 kJ/mol; ΔΔG ([4]; [Ligand] 6 μM (ribose)): 3.3 kJ/mol; kex ([4]; [Ligand] 6 μM (ribose)): 0.00073 s⁻¹; ΔG ([4]; [Ligand] 12 μM (ribose)): 9.2 kJ/mol; ΔΔG ([4]; [Ligand] 12 μM (ribose)): 5.86 kJ/mol; kex ([4]; [Ligand] 12 μM (ribose)): 0.00032 s⁻¹; ΔG ([4]; [Ligand] 24 μM (ribose)): 10.5 kJ/mol; ΔΔG ([4]; [Ligand] 24 μM (ribose)): 7.11 kJ/mol; kex ([4]; [Ligand] 24 μM (ribose)): 0.00019 s⁻¹

B2: ecRBP.L62C: E. coli ribose-binding protein variant L62C (SEQ ID NO:12) (protein, listed as Escherichia coli)
chain: MKDTIALVVSTLNNPFFVSLKDGAQKEADKLGYNLVVLDSQNNPAKELANVQDLTVRGTKICLINPTDSDAVGNAVKMANQANIPVITLDRQATKGEVVSHIASDNVLGGKIAGDYIAKKAGEGAKVIELQGIAGTSAARERGEGFQQAVAAHKFNVLASQPADFDRIKGLNVMQNLLTAHPDVQAVFAQNDEMALGALRALQTAGKSDVMVVGFDGTPDGEKAVNDGKLAATIAQLPDQIGAKGVETADKVLKGEKVQAKYPVDLKLVVKQNGGSHHHHHH
For B2, which “apparent Tm” value ([6]; Gibbs-Helmholtz fit of QCR ΔGU(T)) is on record?
The value was 54±1 °C.

What about the ΔHm [6] of the same molecule?
Its ΔHm is 339 ± 8.4 kJ/mol.

And the “ΔG°U at 25° C.” value [6]?
Its value is 13.4 ± 0.42 kJ/mol.

And the “apparent Tm below wild-type” value [6]?
Its value is ~8 °C.

And the ΔG ([5]; [Ligand] 0 μM)?
Its ΔG is 4.18 kJ/mol.

What about the ΔΔG ([5]; [Ligand] 0 μM) of the same molecule?
Its ΔΔG is 0 kJ/mol.

And the kex ([5]; [Ligand] 0 μM)?
The kex was 0.0099 s⁻¹.

And the ΔG ([5]; [Ligand] 1.5 μM (ribose))?
Its ΔG is 6.28 kJ/mol.

What about the ΔΔG ([5]; [Ligand] 1.5 μM (ribose)) of the same molecule?
Its ΔΔG is 2.1 kJ/mol.

And the kex ([5]; [Ligand] 1.5 μM (ribose))?
The kex was 0.0051 s⁻¹.

What about the ΔG ([5]; [Ligand] 3 μM (ribose)) of the same molecule?
Its ΔG is 7.53 kJ/mol.

What about the ΔΔG ([5]; [Ligand] 3 μM (ribose)) of the same molecule?
Its ΔΔG is 2.9 kJ/mol.

And the kex ([5]; [Ligand] 3 μM (ribose))?
Its kex is 0.0036 s⁻¹.

And the ΔG ([5]; [Ligand] 6 μM (ribose))?
The ΔG was 9.2 kJ/mol.

And the ΔΔG ([5]; [Ligand] 6 μM (ribose))?
Its ΔΔG is 5.02 kJ/mol.

What about the kex ([5]; [Ligand] 6 μM (ribose)) of the same molecule?
Its kex is 0.00019 s⁻¹.

What about the ΔG ([5]; [Ligand] 12 μM (ribose)) of the same molecule?
Its ΔG is 10.9 kJ/mol.

What about the ΔΔG ([5]; [Ligand] 12 μM (ribose)) of the same molecule?
The ΔΔG was 6.28 kJ/mol.

And the kex ([5]; [Ligand] 12 μM (ribose))?
The kex was 0.00011 s⁻¹.

What about the ΔG ([5]; [Ligand] 24 μM (ribose)) of the same molecule?
Its ΔG is 11.3 kJ/mol.

What about the ΔΔG ([5]; [Ligand] 24 μM (ribose)) of the same molecule?
Its ΔΔG is 6.69 kJ/mol.

And the kex ([5]; [Ligand] 24 μM (ribose))?
The kex was 0.00091 s⁻¹.
